Assay results from patent publication US20240150489A1 (ICHNOS SCIENCES, published 2024).
Where a chain is given by its changes, count along the chain named. In names and notes the source's numbering stands. Where two headings read alike, the source gives them in different places. Values belong to the binder of their own block, whether it stands above or below them.

Assays:
[1] = target: T1, Avi-Tagged FcγRIa (Acrobiosystems, FCA-H82E8) (UniProt P12314 16-288, biotinylated (captured with Biotin CAPture kit)); experiment: SPR, FcγRIa captured on CAP chip, antibody analyte; reference trastuzumab control IgG1
[2] = target: T2, Avi-Tagged FcRn (Acrobiosystems, FCM-H82W2) (human, UniProt P55899 24-297, biotinylated (captured with Biotin CAPture kit)); experiment: SPR steady state, FcRn captured on CAP chip, antibody analyte; reference trastuzumab control IgG1
T2 construct: also called human neonatal Fc receptor

human FcγR2a-ECD-His [3] = target: T3, human FcγR2a-ECD-His (human, UniProt P12318 34-208); experiment: SPR steady state, antibody on protein G chip, receptor analyte; reference trastuzumab control IgG1
T3 construct: His-tagged fusion made in house (UniProt P12318); The SPR method names only 'Fc-receptors IIa, IIb, and IIIa'; also called FcγRIIa; Fc-receptor IIa
T3 chain: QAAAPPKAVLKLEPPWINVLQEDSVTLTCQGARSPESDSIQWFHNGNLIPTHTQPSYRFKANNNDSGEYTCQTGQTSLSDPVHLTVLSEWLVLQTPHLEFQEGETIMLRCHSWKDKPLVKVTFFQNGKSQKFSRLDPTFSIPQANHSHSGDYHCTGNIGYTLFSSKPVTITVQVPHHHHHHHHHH

human FcγR2b-ECD-His [4] = target: T4, human FcγR2b-ECD-His (human, UniProt P31994 46-217); experiment: as above
T4 construct: His-tagged fusion made in house (UniProt P31994); also called FcγRIIb; Fc-receptor IIb
T4 sequence: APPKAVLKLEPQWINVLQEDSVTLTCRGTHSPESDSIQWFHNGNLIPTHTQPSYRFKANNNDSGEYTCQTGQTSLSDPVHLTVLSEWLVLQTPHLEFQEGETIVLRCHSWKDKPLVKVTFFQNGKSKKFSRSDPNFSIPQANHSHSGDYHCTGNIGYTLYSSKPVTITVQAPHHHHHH

human FcγR3a-ECD-His [5] = target: T5, human FcγR3a-ECD-His (human, UniProt P08637 17-193); experiment: as above
T5 construct: His-tagged fusion made in house (UniProt P08637); also called FcγRIIIa; Fc-receptor IIIa

[6] = target: T6, CD38 on cells (Daudi, Raji, KMS-12-PE, NCI-H929, KMS-12-BM) (human, UniProt P28907); experiment: flow cytometry on Raji cells (carry CD38 and CD47), anti-human IgG-Fc PE, GeoMFI; apparent whole-cell value, the anti-CD47 arm also binds
T6 construct: full-length, cell surface; These cells also carry CD47

[7] = target: T6, CD38 on cells (Daudi, Raji, KMS-12-PE, …); experiment: flow cytometry on Daudi cells (carry CD38 and CD47), anti-human IgG-Fc PE, GeoMFI; apparent whole-cell value, the anti-CD47 arm also binds
[8] = target: T6, CD38 on cells (Daudi, Raji, KMS-12-PE, …); experiment: flow cytometry on NCI-H929 cells (carry CD38 and CD47), anti-human IgG-Fc PE, GeoMFI; apparent whole-cell value, the anti-CD47 arm also binds
[9] = target: T6, CD38 on cells (Daudi, Raji, KMS-12-PE, …); experiment: flow cytometry on KMS-12-PE cells (carry CD38 and CD47), anti-human IgG-Fc PE, GeoMFI; apparent whole-cell value, the anti-CD47 arm also binds
[10] = target: T6, CD38 on cells (Daudi, Raji, KMS-12-PE, …); experiment: flow cytometry on KMS-12-BM cells (carry CD38 and CD47), anti-human IgG-Fc PE, GeoMFI; apparent whole-cell value, the anti-CD47 arm also binds
[11] = target: T7, CD47 on cells (Daudi cells; human red blood cells) (human, UniProt Q08722 19-323); experiment: blocking of SIRPα-mIgG1 Fc binding to CD47 on Daudi cells, image-based readout with anti-mouse IgG Fc Alexa Fluor 647, % inhibition; the sheet calls the half-maximal value EC50
T7 construct: whole, on cells; These cells also carry CD38

[12] = target: T1, Avi-Tagged FcγRIa (Acrobiosystems, …); experiment: SPR, FcγRIa captured on CAP chip, antibody analyte; reference trastuzumab control IgG1; remark: listed apart in the source
human FcγR2a-ECD-His [13] = target: T3, human FcγR2a-ECD-His; experiment: SPR steady state, antibody on protein G chip, receptor analyte; reference trastuzumab control IgG1
human FcγR2b-ECD-His [14] = target: T4, human FcγR2b-ECD-His; experiment: as above; remark: listed apart in the source
human FcγR3a-ECD-His [15] = target: T5, human FcγR3a-ECD-His; experiment: as above; remark: listed apart in the source
Human FcyRI [16] = target: T8, Human FcyRI (human, UniProt P12314 16-288, limits assumed); experiment: SPR; reference trastuzumab
T8 construct: also called FcγRIa

Human FcyRIIA [17] = target: T9, Human FcyRIIA (human, UniProt P12318 34-208, limits assumed); experiment: SPR; reference trastuzumab
T9 construct: also called FcγRIIa
T9 chain: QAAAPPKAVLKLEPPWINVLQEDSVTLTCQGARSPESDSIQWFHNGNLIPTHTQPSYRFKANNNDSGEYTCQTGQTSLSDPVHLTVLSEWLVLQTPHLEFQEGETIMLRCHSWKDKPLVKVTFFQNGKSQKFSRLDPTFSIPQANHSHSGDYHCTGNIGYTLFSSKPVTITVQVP

Human FcyRIIB [18] = target: T10, Human FcyRIIB (human, UniProt P31994 46-217, limits assumed); experiment: SPR; reference trastuzumab
T10 construct: also called FcγRIIb
T10 sequence (looked up): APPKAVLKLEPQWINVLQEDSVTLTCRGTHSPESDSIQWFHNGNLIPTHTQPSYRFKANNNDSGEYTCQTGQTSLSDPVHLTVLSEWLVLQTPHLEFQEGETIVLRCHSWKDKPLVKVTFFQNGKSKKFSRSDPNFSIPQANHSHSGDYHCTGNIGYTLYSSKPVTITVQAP

Human FcyRIIIA [19] = target: T11, Human FcyRIIIA (human, UniProt P08637 17-193, limits assumed); experiment: SPR; reference trastuzumab
T11 construct: also called FcγRIIIa

Human FcyRIIA [20] = target: T9, Human FcyRIIA; experiment: SPR, antibody on Protein G chip, steady state
Human FcyRIIB [21] = target: T10, Human FcyRIIB; experiment: SPR, antibody on Protein G chip, steady state
Human FcyRIIIA [22] = target: T11, Human FcyRIIIA; experiment: SPR, antibody on Protein G chip, steady state
Human FcyRI [23] = target: T8, Human FcyRI; experiment: SPR, antibody on Protein G chip, 1:1 binding model
Human FcRn = target: T12, Human FcRn (human, UniProt P55899 24-297, limits assumed); experiment: SPR, antibody on Protein L chip, steady state, pH 6.0
T12 construct: Measured at pH 6.0; also called human FcRn receptor

[24] = target: T13, human FcRn-ECD-Avi-His / B2M complex (human, UniProt P61769 21-119); experiment: SPR steady state, antibody captured with Human Fab Capture kit, FcRn analyte; reference trastuzumab control IgG1
T13 construct: B2M was cloned full length with its native leader; The alternative SPR method for BEAT CD38/CD47-60 says only 'FcRn' as analyte; the tie to the in-house complex is inferred; also called human FcRn/B2M complex

B1: BEAT CD38/CD47-48 (bispecific antibody, human IgG1, kappa)
heavy 1: EVQLVESGGGLIQPGGSLRLSCAASGFTLSRNTMHWVRQAPGKGLEWVSVIYQSGVTRYADSVKSRFTISRDNSKNTLYLQMNSLRAEDTAVYYCARGRYGVAGGPGYAFDVWGQGTLVTVSSASTKGPSVFPLAPSSKSTSGGTAALGCLVKDYFPEPVTVSWNSGALTSGVHTFPAVLQSSGLYSLSSVVTVPSSSLGTQTYICNVNHKPSNTKVDKKVEPKSCDKTHTCPPCPAPELLGGPDVFLFPPKPKDTLMISRTPEVTCVVVDVSHEDPEVKFNWYVDGVEVHNAKTKPREEQYNSTYRVVSVLTVLHQDWLNGKEYKCKVNNKALPAPEEKTISKAKGQPREPAVYTLPPSREEMTKNQVKLVCLVTGFYPSDIAVEWESSGQPENNYYTTPPMLDSDGSFSLVSWLNVDKSRWQQGNIFSCSVMHEALHNRFTQKSLSLSPG
heavy 2: not shown
light: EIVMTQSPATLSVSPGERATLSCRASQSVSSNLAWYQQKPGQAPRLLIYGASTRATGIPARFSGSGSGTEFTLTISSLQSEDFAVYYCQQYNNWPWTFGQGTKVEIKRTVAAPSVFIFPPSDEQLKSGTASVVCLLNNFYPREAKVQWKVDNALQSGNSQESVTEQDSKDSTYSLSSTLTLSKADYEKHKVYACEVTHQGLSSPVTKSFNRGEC
notes: 2+1 biparatopic format; the number of light chains follows from the three Fab domains; also called BEAT CD38/47-48; BEAT 38/47-48
fold gain in affinity vs control [1]: 864 fold | KD ratio [BEAT/Control IgG1] [2]: 0.2 ratio | fold gain in affinity vs control (human FcγR2a-ECD-His [3]): 7 fold | fold gain in affinity vs control (human FcγR2b-ECD-His [4]): 16 fold | fold gain in affinity vs control (human FcγR3a-ECD-His [5]): 10 fold | EC50 (read off the curve) [6]: ~10 nM | EC50 (read off the curve) [7]: ~8 nM | EC50 (read off the curve) [8]: ~20 nM | EC50 (read off the curve) [9]: ~6 nM | EC50 (read off the curve) [10]: ~30 nM | IC50 (read off the curve) [11]: ~0.05 nM

B2: BEAT CD38/CD47-21 (bispecific antibody, human IgG1, kappa)
heavy 1: B1 heavy 1 with D245S, E338I, K340E
heavy 2: QVQLVQSGAEVKKPGSSVKVSCKASGLPDATYAIGWVRQAPGQGLEWMGRIIPRLDAEHYAQKFQGRVTITADESTSTAYMELSSLRSEDTAVYYCARGLGYYLYSSYYFDIWGQGTLVTVSSASTKGPSVFPLAPSSKSTSGGTAALGCLVKDYFPEPVTVSWNSGALTSGVHTFPAVLQSSGLYSLSSVVTVPSSSLGTQTYICNVNHKPSNTKVDKKVEPKSCDKTHTCPPCPAPELLGGPSVFLFPPKPKDTLMISRTPEVTCVVVDVSHEDPEVKFNWYVDGVEVHNAKTKPREEQYNSTYRVVSVLTVLHQDWLNGKEYKCKVNNKALPAPIEETISKAKGQPREPEVATFPPSRDELTKNQVTLVCLVTGFYPSDIAVEWESNGQPENNYKTDPPLLESQGSFALSSRLRVDKSRWQQGNVFSCSVMHEALHNHYTQKSLSLSPG
light: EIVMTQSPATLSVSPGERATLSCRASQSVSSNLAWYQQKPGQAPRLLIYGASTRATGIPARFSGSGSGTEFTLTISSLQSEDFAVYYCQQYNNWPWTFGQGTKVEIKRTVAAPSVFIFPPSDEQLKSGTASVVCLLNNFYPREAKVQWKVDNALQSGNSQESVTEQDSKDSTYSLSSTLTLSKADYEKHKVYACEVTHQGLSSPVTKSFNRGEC
notes: 1+1 format; Fc mutations S324N + K334E in both heavy chains
fold gain in affinity vs control [12]: 1030 fold | KD ratio [BEAT/Control IgG1] [2]: 0.4 ratio | fold gain in affinity vs control (human FcγR2a-ECD-His [13]): 1 fold | fold gain in affinity vs control (human FcγR2b-ECD-His [14]): 0.1 fold | fold gain in affinity vs control (human FcγR3a-ECD-His [15]): 2 fold

B5: BEAT CD38/CD47-42 (bispecific antibody, human IgG1, kappa)
heavy 1: B1 heavy 1
heavy 2: B2 heavy 2 with E340K
light: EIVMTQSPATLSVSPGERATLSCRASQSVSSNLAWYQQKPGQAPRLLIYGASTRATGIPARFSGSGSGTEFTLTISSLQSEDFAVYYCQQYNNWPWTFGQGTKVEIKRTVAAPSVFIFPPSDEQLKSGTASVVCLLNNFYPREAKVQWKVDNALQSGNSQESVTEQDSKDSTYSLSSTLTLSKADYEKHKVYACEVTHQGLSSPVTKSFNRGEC
notes: 1+1 format; BEAT (A): S239D + I332E + S324N, BEAT (B): S324N
fold gain in affinity vs control [12]: 3750 fold | KD ratio [BEAT/Control IgG1] [2]: 0.5 ratio | fold gain in affinity vs control (human FcγR2a-ECD-His [13]): 6 fold | fold gain in affinity vs control (human FcγR2b-ECD-His [14]): 14 fold | fold gain in affinity vs control (human FcγR3a-ECD-His [15]): 11 fold

Continued, values first:

fold enhancement BEAT CD38/47-60 over trastuzumab (Human FcyRI [16]): 2.6 fold | fold enhancement BEAT CD38/47-60 over trastuzumab (Human FcyRIIA [17]): 4.4 fold | fold enhancement BEAT CD38/47-60 over trastuzumab (Human FcyRIIB [18]): 6.7 fold | fold enhancement BEAT CD38/47-60 over trastuzumab (Human FcyRIIIA [19]): 5.6 fold | Kd (Human FcyRIIA [20]): 110 nM | Kd (Human FcyRIIB [21]): 306 nM | Kd (Human FcyRIIIA [22]): 15.1 nM | Kd (Human FcyRI [23]): 0.07 nM | Kd (Human FcRn): 418 nM | KD ratio [BEAT/Control IgG1] [24]: 0.5 ratio | EC50 (read off the curve) [6]: ~4 nM | EC50 (read off the curve) [7]: ~4 nM | EC50 (read off the curve) [8]: ~8 nM | EC50 (read off the curve) [9]: ~3 nM | EC50 (read off the curve) [10]: ~30 nM | IC50 (read off the curve) [11]: ~0.03 nM
B3: BEAT CD38/CD47-60 (bispecific antibody, human IgG1, kappa)
heavy 1: B1 heavy 1
heavy 2: not shown
light: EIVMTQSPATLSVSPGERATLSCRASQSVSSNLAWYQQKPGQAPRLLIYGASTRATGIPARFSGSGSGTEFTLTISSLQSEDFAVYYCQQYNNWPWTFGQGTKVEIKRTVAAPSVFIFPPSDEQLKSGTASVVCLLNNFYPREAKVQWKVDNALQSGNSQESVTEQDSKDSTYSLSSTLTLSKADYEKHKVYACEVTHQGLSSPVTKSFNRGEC
notes: 2+1 biparatopic format; BEAT (A): S239D + I332E + S324N, BEAT (B): S324N; also called BEAT CD38/47-60; BEAT 38/47-60

fold gain in affinity vs control [1]: 4510 fold | KD ratio [BEAT/Control IgG1] [2]: 0.3 ratio | fold gain in affinity vs control (human FcγR2a-ECD-His [3]): 0.4 fold | fold gain in affinity vs control (human FcγR2b-ECD-His [4]): 1 fold | fold gain in affinity vs control (human FcγR3a-ECD-His [5]): 4 fold
B4: BEAT CD38/CD47-40 (bispecific antibody, human IgG1, kappa)
heavy 1: B1 heavy 1 with D245S, E275D, S304A, E338I, K340A
heavy 2: not shown
light: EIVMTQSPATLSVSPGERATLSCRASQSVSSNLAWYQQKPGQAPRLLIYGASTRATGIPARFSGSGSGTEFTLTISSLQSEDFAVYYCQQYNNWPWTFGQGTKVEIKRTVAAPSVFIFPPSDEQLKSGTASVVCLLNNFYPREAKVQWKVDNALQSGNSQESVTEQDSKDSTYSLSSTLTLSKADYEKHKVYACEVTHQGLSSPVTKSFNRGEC
notes: 2+1 biparatopic format; E269D + S298A + S324N + K334A in both heavy chains
